According to patent publication US20230242615A1:

Target: IL4Rα on TF1 cells (UniProt P24394)
Assay: cell-based or functional assay

IC50 (nM) Blocking IL4, TF-1 cell proliferation: 3.1 nM | IC50 (nM) Blocking IL13, TF-1 cell proliferation: 20.5 nM | Relative activity (blocking IL4, against Dupilumab): 1 fold | Relative activity (blocking IL13, against Dupilumab): 1 fold
B1: Dupilumab (antibody, INN chains, looked up, V domains shown)
VH: EVQLVESGGGLEQPGGSLRLSCAGSGFTFRDYAMTWVRQAPGKGLEWVSSISGSGGNTYYADSVKGRFTISRDNSKNTLYLQMNSLRAEDTAVYYCAKDRLSITIRPRYYGLDVWGQGTTVTVSS
VL: DIVMTQSPLSLPVTPGEPASISCRSSQSLLYSIGYNYLDWYLQKSGQSPQLLIYLGSNRASGVPDRFSGSGSGTDFTLKISRVEAEDVGFYYCMQALQTPYTFGQGTKLEIKR
